The target in experiment [1] is T1, factor IXaβ (UniProt P00740 47-191; P00740 227-461).
T1 construct: Bought reagent
The experiment is described as follows: factor Xa generation assay on activated platelets (SFLLRN-amide), factor IXa titrated with factor VIIIa. The method, then:
(§1) Factor VIII cofactor activity, factor IXa-factor VIIIa affinity, and kinetic parameters were determined using factor Xa generation assays. Reactions were performed in the presence of either phospholipid vesicles, non-activated platelets, or platelets activated by SFLLRN-amide (50 μM).

Experiment [2] deals with T1, factor IXaβ. The experiment is described as follows: factor Xa generation assay on phospholipid vesicles, factor IXa titrated with factor VIIIa. The method, then: as §1
Experiment [3] deals with T1, factor IXaβ. The experiment is described as follows: factor Xa generation assay on non-activated platelets, factor IXa titrated with factor VIIIa. The procedure: as §1

1 molecule from US20070265199A1 (UNIVERSITY OF ROCHESTER, published 2007) can be followed below.

T1 sequence (P00740 47-191 limits assumed, form in doubt, chain 1 of 2): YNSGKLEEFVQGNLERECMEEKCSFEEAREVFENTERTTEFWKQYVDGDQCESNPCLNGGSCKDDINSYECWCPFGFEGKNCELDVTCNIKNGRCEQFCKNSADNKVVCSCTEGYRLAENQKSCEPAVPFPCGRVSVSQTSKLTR
T1 sequence (P00740 227-461 limits assumed, form in doubt, chain 2 of 2): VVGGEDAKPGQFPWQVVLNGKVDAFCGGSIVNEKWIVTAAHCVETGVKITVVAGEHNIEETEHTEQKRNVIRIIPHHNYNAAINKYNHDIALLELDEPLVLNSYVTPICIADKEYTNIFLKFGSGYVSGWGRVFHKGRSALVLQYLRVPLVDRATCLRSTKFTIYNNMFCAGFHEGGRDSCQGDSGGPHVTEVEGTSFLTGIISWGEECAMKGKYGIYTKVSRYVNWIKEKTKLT

B1: factor VIIIa E113A (thrombin-activated B-domainless factor VIII bearing Glu113Ala) (other)
chain 1: ATRRYYLGAVELSWDYMQSDLGELPVDARFPPRVPKSFPFNTSVVYKKTLFVEFTVHLFNIAKPRPPWMGLLGPTIQAEVYDTVVITLKNMASHPVSLHAVGVSYWKASEGAAYDDQTSQREKEDDKVFPGGSHTYVWQVLKENGPMASDPLCLTYSYLSHVDLVKDLNSGLIGALLVCREGSLAKEKTQTLHKFILLFAVFDEGKSWHSETKNSLMQDRDAASARAWPKMHTVNGYVNRSLPGLIGCHRKSVYWHVIGMGTTPEVHSIFLEGHTFLVRNHRQASLEISPITFLTAQTLLMDLGQFLLFCHISSHQHDGMEAYVKVDSCPEEPQLRMKNNEEAEDYDDDLTDSEMDVVRFDDDNSPSFIQIR
chain 2: SVAKKHPKTWVHYIAAEEEDWDYAPLVLAPDDRSYKSQYLNNGPQRIGRKYKKVRFMAYTDETFKTREAIQHESGILGPLLYGEVGDTLLIIFKNQASRPYNIYPHGITDVRPLYSRRLPKGVKHLKDFPILPGEIFKYKWTVTVEDGPTKSDPRCLTRYYSSFVNMERDLASGLIGPLLICYKESVDQRGNQIMSDKRNVILFSVFDENRSWYLTENIQRFLPNPAGVQLEDPEFQASNIMHSINGYVFDSLQLSVCLHEVAYWYILSIGAQTDFLSVFFSGYTFKHKMVYEDTLTLFPFSGETVFMSMENPGLWILGCHNSDFRNRGMTALLKVSSCDKNTGDYYEDSYEDISAYLLSKNNAIEPR
chain 3: SFQKKTRHYFIAAVERLWDYGMSSSPHVLRNRAQSGSVPQFKKVVFQEFTDGSFTQPLYRGELNEHLGLLGPYIRAEVEDNIMVTFRNQASRPYSFYSSLISYEEDQRQGAEPRKNFVKPNETKTYFWKVQHHMAPTKDEFDCKAWAYFSDVDLEKDVHSGLIGPLLVCHTNTLNPAHGRQVTVQEFALFFTIFDETKSWYFTENMERNCRAPCNIQMEDPTFKENYRFHAINGYIMDTLPGLVMAQDQRIRWYLLSMGSNENIHSIHFSGHVFTVRKKEEYKMALYNLYPGVFETVEMLPSKAGIWRVECLIGEHLHAGMSTLFLVYSNKCQTPLGMASGHIRDFQITASGQYGQWAPKLARLHYSGSINAWSTKEPFSWIKVDLLAPMIIHGIKTQGARQKFSSLYISQFIIMYSLDGKKWQTYRGNSTGTLMVFFGNVDSSGIKHNIFNPPIIARYIRLHPTHYSIRSTLRMELMGCDLNSCSMPLGMESKAISDAQITASSYFTNMFATWSPSKARLHLQGRSNAWRPQVNNPKEWLQVDFQKTMKVTGVTTQGVKSLLTSMYVKEFLISSSQDGHQWTLFFQNGKVKVFQGNQDSFTPVVNSLDPPLLTRYLRIHPQSWVHQIALRMEVLGCEAQDLY
notes: also called factor VIII E113A; Factor VIII:E113A
Usually Kd stands for a measure of binding affinity in units of concentration. Regarding B1, the results for the Kd with factor IXaβ [1], with factor IXaβ [2] and with factor IXaβ [3] were 6 nM, 5 nM and 5.7 nM, respectively.
